T1: AtTOM1-Cub-PLV (split-ubiquitin bait) (Arabidopsis thaliana, UniProt Q9FEG2 1-291)
T1 construct: Arabidopsis thaliana TOM1, seven-pass transmembrane protein; source: yeast two-hybrid fusion (split-ubiquitin, reporter strain L40); not shown: Cub-PLV, C-terminal, kept
T1 sequence (looked up): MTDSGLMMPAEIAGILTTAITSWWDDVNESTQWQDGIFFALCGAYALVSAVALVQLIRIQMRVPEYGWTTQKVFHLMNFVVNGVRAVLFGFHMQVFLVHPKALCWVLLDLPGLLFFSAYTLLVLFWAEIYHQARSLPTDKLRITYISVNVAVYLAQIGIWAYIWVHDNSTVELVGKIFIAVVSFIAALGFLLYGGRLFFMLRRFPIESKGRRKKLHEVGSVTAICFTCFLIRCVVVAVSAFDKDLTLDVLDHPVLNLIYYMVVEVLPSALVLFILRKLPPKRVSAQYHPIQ

B1: AtARL8a-NubG (split-ubiquitin prey) (natural protein, Arabidopsis thaliana, UniProt Q8VY57 1-184, looked up)
chain: MGLLEAFLNWLRSLFFKQEMELSLIGLQNAGKTSLVNVVATGGYSEDMIPTVGFNMRKVTKGNVTIKLWDLGGQPRFRSMWERYCRAVSAIVYVVDAADPDNLSVSKSELHDLLSKTSLNGIPLLVLGNKIDKPGALSKEALTDEMGLTSLTDREVCCFMISCKNSTNIDQVIDWLVKHSKSKN
notes: Arabidopsis thaliana ARL8a; 'a DNA fragment corresponding to the AtARL8a-coding region' put in place of TOM1 in pTN-TOM1-NubG; also called ARL8-NubG; source: yeast two-hybrid fusion (split-ubiquitin, reporter strain L40); not shown: NubG, C-terminal, kept

Key:
[1] = biological target: AtARL8a-Cub-PLV (split-ubiquitin bait) (Arabidopsis thaliana) (UniProt Q8VY57); experiment: two-hybrid; split-ubiquitin assay in yeast reporter strain L40; Cub-PLV fusion as bait, NubG fusion as prey; beta-galactosidase activity (Miller units)
[2] = biological target: T1, AtTOM1-Cub-PLV (split-ubiquitin bait); experiment: as above; settings: partners not purified

| Molecule | fold weaker signal (beta-galactosidase) than the TOM1-helicase domain pair [1] [times weaker] | fold weaker signal (beta-galactosidase) than the TOM1-helicase domain pair [2] [times weaker] |
| --- | --- | --- |
| NubG-HEL: helicase domain polypeptide of ToMV replication proteins (residues 648-1116 of the 130K protein) (domain or fragment) | 13 | – |
| B1 | – | 6 |
